Measurements: patent US20200199204A1 (UNITED STATES OF AMERICA AS REPRESENTED BY THE SECRETARY …, published 2020)

How the values were obtained:
Experiment in all cases: cell-based or functional assay
[1] = target: HIV-1 Env of strain CNE3 (clade AE), on Env-pseudovirus (HIV-1 strain CNE3)
[2] = target: HIV-1 Env of strain TH976.17 (clade AE), on Env-pseudovirus (HIV-1 strain TH976.17)
[3] = target: SIV Env of SIVmac251.30 (nonHIV control), on Env-pseudovirus (SIVmac251.30)
HIV-1 Env of CAP256.PI = HIV-1 Env of CAP256.PI (HIV-1)
HIV-1 Env of CAP256.SU = HIV-1 Env of CAP256.SU (HIV-1)
HIV-1 Env of 96ZM651.02 = HIV-1 Env of 96ZM651.02 (HIV-1)
HIV-1 Env of CAP210.E8 = HIV-1 Env of CAP210.E8 (HIV-1)
HIV-1 Env of CAP244.D3 = HIV-1 Env of CAP244.D3 (HIV-1)
HIV-1 Env of CAP45.G3 = HIV-1 Env of CAP45.G3 (HIV-1)
HIV-1 Env of DU156.12 = HIV-1 Env of DU156.12 (HIV-1)
HIV-1 Env of DU172.17 = HIV-1 Env of DU172.17 (HIV-1)
HIV-1 Env of DU422.01 = HIV-1 Env of DU422.01 (HIV-1)
HIV-1 Env of ZM109.4 = HIV-1 Env of ZM109.4 (HIV-1)
HIV-1 Env of ZM135.10a = HIV-1 Env of ZM135.10a (HIV-1)
HIV-1 Env of ZM197.7 = HIV-1 Env of ZM197.7 (HIV-1)
HIV-1 Env of ZM214.15 = HIV-1 Env of ZM214.15 (HIV-1)
HIV-1 Env of ZM233.6 = HIV-1 Env of ZM233.6 (HIV-1)
HIV-1 Env of ZM249.1 = HIV-1 Env of ZM249.1 (HIV-1)
HIV-1 Env of ZM53.12 = HIV-1 Env of ZM53.12 (HIV-1)
HIV-1 Env of 0260.v5.c36 = HIV-1 Env of 0260.v5.c36 (HIV-1)
HIV-1 Env of BG505.w6m = HIV-1 Env of BG505.w6m (HIV-1)
HIV-1 Env of KER2008.12 = HIV-1 Env of KER2008.12 (HIV-1)
HIV-1 Env of KER2018.11 = HIV-1 Env of KER2018.11 (HIV-1)
HIV-1 Env of MB201 = HIV-1 Env of MB201 (HIV-1)
HIV-1 Env of MB539.2B7 = HIV-1 Env of MB539.2B7 (HIV-1)
HIV-1 Env of Q168.a2 = HIV-1 Env of Q168.a2 (HIV-1)
HIV-1 Env of Q23.17 = HIV-1 Env of Q23.17 (HIV-1)
HIV-1 Env of Q259.d2.17 = HIV-1 Env of Q259.d2.17 (HIV-1)
HIV-1 Env of Q461.e2 = HIV-1 Env of Q461.e2 (HIV-1)
HIV-1 Env of Q769.d22 = HIV-1 Env of Q769.d22 (HIV-1)
HIV-1 Env of Q842.d12 = HIV-1 Env of Q842.d12 (HIV-1)
HIV-1 Env of RW020.2 = HIV-1 Env of RW020.2 (HIV-1)
HIV-1 Env of UG037.8 = HIV-1 Env of UG037.8 (HIV-1)
HIV-1 Env of 6535.3 = HIV-1 Env of 6535.3 (HIV-1)
HIV-1 Env of AC10.29 = HIV-1 Env of AC10.29 (HIV-1)
HIV-1 Env of CAAN.A2 = HIV-1 Env of CAAN.A2 (HIV-1)
HIV-1 Env of PVO.04 = HIV-1 Env of PVO.04 (HIV-1)
HIV-1 Env of QH0692.42 = HIV-1 Env of QH0692.42 (HIV-1)
HIV-1 Env of REJO.67 = HIV-1 Env of REJO.67 (HIV-1)
HIV-1 Env of RHPA.7 = HIV-1 Env of RHPA.7 (HIV-1)
HIV-1 Env of SC422.8 = HIV-1 Env of SC422.8 (HIV-1)
HIV-1 Env of THRO.18 = HIV-1 Env of THRO.18 (HIV-1)
HIV-1 Env of TRJO.58 = HIV-1 Env of TRJO.58 (HIV-1)
HIV-1 Env of TRO.11 = HIV-1 Env of TRO.11 (HIV-1)
HIV-1 Env of WITO.33 = HIV-1 Env of WITO.33 (HIV-1)
HIV-1 Env of 191821.E6.1 = HIV-1 Env of 191821.E6.1 (HIV-1)
HIV-1 Env of 3016.V5.c36 = HIV-1 Env of 3016.V5.c36 (HIV-1)
HIV-1 Env of 6405.v4.c34 = HIV-1 Env of 6405.v4.c34 (HIV-1)
HIV-1 Env of C1080.c3 = HIV-1 Env of C1080.c3 (HIV-1)
HIV-1 Env of CM244.ec1 = HIV-1 Env of CM244.ec1 (HIV-1)
HIV-1 Env of CNE3 = HIV-1 Env of CNE3 (HIV-1)
HIV-1 Env of TH976.17 = HIV-1 Env of TH976.17 (HIV-1)

B1: CAP256-VRC26.10 (antibody, V domains shown)
VH: QAILVESGGGVVQPGRSLRLSCAASQFTFSGHGLHWVRQAPGKGLEWVASISFAGTKMDYADSVKGRFAISRDNSKNTLYLQMNSLRVEDTALYYCAKDMREYECEYWTSDYYDFGRPQPCIDRRGVVGIFDMWGQGTMVTVST
VL: QSVLTQPPSVSAAPGQKVTISCSGSSSNIGDNYVSWYQHLPGTAPKLLIYENTRRPSGIPDRFSGSKSGTSATLAITGLQTGDEADYYCGTWDVRPNRGAVFGTGTKVTVLG
IC50, neutralization of Env-pseudovirus (TZM-bl assay) [1]: > 50 µg/mL
IC50, neutralization of Env-pseudovirus (TZM-bl assay) [2]: > 50 µg/mL
IC50, neutralization of Env-pseudovirus (TZM-bl assay) [3]: > 50 µg/mL

B2: CAP256-VRC26.12 (antibody, V domains shown)
VH: EVQLVQSGGGVVQPGRSLRLSCAAPYFEFGRYGFHWVRQAPGKGLEWVASISFAGRDYYHSPSVWGRFTISRDNSKNTLYLQMNSLRIEDTALYFCARDLRESECEEWESDYYDFGKKGPCVKPRGVAGGLDLWGQGTMVIVSS
VL: QSVLTQPPSVSTAPGQTVTVSCSGGTSNTGNNFVSWYQHLPGTAPKLLIYENNKRPLGVPDRFSGAKSGTSATLAITGLQTGDEGDYYCATWSGSLNIGTGTKVSVLG
IC50, neutralization of Env-pseudovirus (TZM-bl assay) [1]: > 50 µg/mL
IC50, neutralization of Env-pseudovirus (TZM-bl assay) [2]: > 50 µg/mL

B3: CAP256-VRC26.04 (antibody, V domains shown)
VH: EVQLVESGGGVVQPGKSLRLSCAASQFSFNRYGMHWVRQAPGKGLEWVAAISYDGTDKYHADKVWGRFTISRDNSKNTLYLQMNSLRAEDTALYYCAKDLREDECEEWWSDYYDFGKQLPCRKSRGVAGIFDKWGQGTMVIVSS
VL: QPVLTQPPSVSAAPGQKVTISCSGSSSNIGNNFVSWYQQRPGTAPSLLIYETNKRPSGIPDRFSGSKSATSATLAITGLQTGDEADYYCATWAASLTSARVFGTGTKVIVSG
neutralization IC50 (HIV-1 Env of CAP256.PI): > 50 µg/mL
neutralization IC50 (HIV-1 Env of CAP256.SU): 0.003 µg/mL
neutralization IC50 (HIV-1 Env of 96ZM651.02): > 50 µg/mL
neutralization IC50 (HIV-1 Env of CAP210.E8): 0.005 µg/mL
neutralization IC50 (HIV-1 Env of CAP244.D3): > 50 µg/mL
neutralization IC50 (HIV-1 Env of CAP45.G3): > 50 µg/mL
neutralization IC50 (HIV-1 Env of DU156.12): 10.4 µg/mL
neutralization IC50 (HIV-1 Env of DU172.17): > 50 µg/mL
neutralization IC50 (HIV-1 Env of DU422.01): 4.17 µg/mL
neutralization IC50 (HIV-1 Env of ZM109.4): > 50 µg/mL
neutralization IC50 (HIV-1 Env of ZM135.10a): > 50 µg/mL
neutralization IC50 (HIV-1 Env of ZM197.7): 0.254 µg/mL
neutralization IC50 (HIV-1 Env of ZM214.15): > 50 µg/mL
neutralization IC50 (HIV-1 Env of ZM233.6): 0.06 µg/mL
neutralization IC50 (HIV-1 Env of ZM249.1): 11.4 µg/mL
neutralization IC50 (HIV-1 Env of ZM53.12): 0.004 µg/mL
neutralization IC50 (HIV-1 Env of 0260.v5.c36): > 50 µg/mL
neutralization IC50 (HIV-1 Env of BG505.w6m): 8.43 µg/mL
neutralization IC50 (HIV-1 Env of KER2008.12): > 50 µg/mL
neutralization IC50 (HIV-1 Env of KER2018.11): 0.008 µg/mL
neutralization IC50 (HIV-1 Env of MB201): > 50 µg/mL
neutralization IC50 (HIV-1 Env of MB539.2B7): > 50 µg/mL
neutralization IC50 (HIV-1 Env of Q168.a2): > 50 µg/mL
neutralization IC50 (HIV-1 Env of Q23.17): 23.6 µg/mL
neutralization IC50 (HIV-1 Env of Q259.d2.17): 0.025 µg/mL
neutralization IC50 (HIV-1 Env of Q461.e2): > 50 µg/mL
neutralization IC50 (HIV-1 Env of Q769.d22): > 50 µg/mL
neutralization IC50 (HIV-1 Env of Q842.d12): > 50 µg/mL
neutralization IC50 (HIV-1 Env of RW020.2): > 50 µg/mL
neutralization IC50 (HIV-1 Env of UG037.8): > 50 µg/mL
neutralization IC50 (HIV-1 Env of 6535.3): > 50 µg/mL
neutralization IC50 (HIV-1 Env of AC10.29): > 50 µg/mL
neutralization IC50 (HIV-1 Env of CAAN.A2): > 50 µg/mL
neutralization IC50 (HIV-1 Env of PVO.04): > 50 µg/mL
neutralization IC50 (HIV-1 Env of QH0692.42): > 50 µg/mL
neutralization IC50 (HIV-1 Env of REJO.67): > 50 µg/mL
neutralization IC50 (HIV-1 Env of RHPA.7): > 50 µg/mL
neutralization IC50 (HIV-1 Env of SC422.8): > 50 µg/mL
neutralization IC50 (HIV-1 Env of THRO.18): > 50 µg/mL
neutralization IC50 (HIV-1 Env of TRJO.58): > 50 µg/mL
neutralization IC50 (HIV-1 Env of TRO.11): > 50 µg/mL
neutralization IC50 (HIV-1 Env of WITO.33): > 50 µg/mL
neutralization IC50 (HIV-1 Env of 191821.E6.1): > 50 µg/mL
neutralization IC50 (HIV-1 Env of 3016.V5.c36): 0.283 µg/mL
neutralization IC50 (HIV-1 Env of 6405.v4.c34): > 50 µg/mL
neutralization IC50 (HIV-1 Env of C1080.c3): 0.212 µg/mL
neutralization IC50 (HIV-1 Env of CM244.ec1): 0.361 µg/mL
neutralization IC50 (HIV-1 Env of CNE3): > 50 µg/mL
neutralization IC50 (HIV-1 Env of TH976.17): > 50 µg/mL

B4: CAP256-VRC26.11 (antibody, V domains shown)
VH: EVQLVESGGGVVPPGKSLTLSCVASRFTFSAFGMHWVRQAPGKGLEWVASISFAGIKKYYADSVKGRFSISRDNSNTLFLQMNGLRGEDTGLYHCVKDMRELECEEWASDYYDFGKPQPCLDRRGVSGISAWWGPGTMVTVSS
VL: QSVLTQPPSVSAAPGQNVTISCSGPPSHIEKNDVSWYQRLPGMAPKMVIYESKRRPLGIPVRFSASRSGSSATLVITGLQTADEADYYCGTWDGRMNFGTGTTVSVLG
IC50, neutralization of Env-pseudovirus (TZM-bl assay) [1]: > 50 µg/mL
IC50, neutralization of Env-pseudovirus (TZM-bl assay) [2]: > 50 µg/mL
